In general, IC50 refers to the point on the concentration scale where inhibition reaches its midpoint.

First the molecules themselves.
B1: UBN1(92–175) [human] / H3.3/H4 [human | X. laevis] (parent complex)
chain 1: NDEEKERHKVEALARKFEEKYGGKKRRKDRIQDLIDMGYGYDESDSFIDNSEAYDELVPASLTTKYGGFYINSGTLQFRQASES
chain 2: not shown
chain 3: not shown

Variants of B1 are the subject of the assay. The experiment in a line: fluorescence polarization competition binding; 10 nM FITC-UBN1(127–148), 6.5 μM H3.3/H4; 20 mM HEPES pH 7.5, 750 mM NaCl, 1 mM TCEP; parent: 1.66e+04 nM.
Consider chain 1 I35A, for which the IC50 turned out to be 13.8 µM.

In the case of chain 1 G38A, the IC50 came to 67.8 µM.

For the variant chain 1 Y39A, the IC50 was found to be 14.4 µM.

In the case of chain 1 I31A, the IC50 amounted to 16.9 µM.

As for chain 1 D55A, the IC50 was found to be 23 µM.

For chain 1 Y54A, the IC50 is 16.4 µM.

In the case of chain 1 E56A, the IC50 is 22.9 µM.

As to chain 1 L57A, the IC50 was determined as 19.6 µM.

chain 1 G40A: the IC50 is 19.9 µM.

Regarding chain 1 A53I, the IC50 worked out at 16.3 µM.

Regarding chain 1 D33A, the IC50 was 19.6 µM.

Regarding chain 1 D36A, the IC50 worked out at 21.1 µM.

Turning to chain 1 S46A, the IC50 was 16.2 µM.

In the case of chain 1 Q32A, the IC50 turned out to be 13.8 µM.

On to chain 1 L34A, for which the IC50 is 15.1 µM.

Regarding chain 1 M37A, the IC50 was 22.6 µM.

In the case of chain 1 E52A, the IC50 is 29.3 µM.

(Values after article PMC4510971 (2015).)
